Laboratory results published in the supplement of paper PMC10567573.

B1: SAT2 (parent)
chain: LTEAEGWHFFCFQGEATRKLAGK

Variants of: B1
Assay: protein stability index of a GFP-peptide fusion (GPS, HEK-293T) (PSI 1-6); higher = more stable
Conditions: c terminus: native
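Also: lentivirally expressed fusions sorted by FACS into six bins by GFP to DsRed ratio, PSI derived from sequencing read proportions per bin multiplied by bin number.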

In order of rising protein stability index:
1. LWEAEGWHFFCFQGEATRKLAGK [T2W]  1.11
2. LTEAKGWHFFCFQGEATRKLAGK [E5K]  1.18
3. LTEACGWHFFCFQGEATRKLAGK [E5C]  1.26
4. LTEALGWHFFCFQGEATRKLAGK [E5L]  1.29
5. LTEFEGWHFFCFQGEATRKLAGK [A4F]  1.31
6. LTEAEGWHFFCFQGEATRKLLGK [A21L]  1.33
7. LTECEGWHFFCFQGEATRKLAGK [A4C]  1.45
8. LTEAEGWHFFCFQGEATRKLAAK [G22A]  1.5
9. LTEAEGWHFFCFQGEATFKLAGK [R18F]  1.5
10. LTEAEGWHFFCFQGEATRKLAGR [K23R]  1.51
11. LTEYEGWHFFCFQGEATRKLAGK [A4Y]  1.56
12. LTEAEGWHFFCFQGEAFRKLAGK [T17F]  1.61
13. LTEAEGWHFFCFQGEATMKLAGK [R18M]  1.71
14. LTEANGWHFFCFQGEATRKLAGK [E5N]  1.73
15. ITEAEGWHFFCFQGEATRKLAGK [L1I]  1.79
16. LTEAEGWHFFCFQGEACRKLAGK [T17C]  1.8
17. LFEAEGWHFFCFQGEATRKLAGK [T2F]  1.8
18. LTEAEGWHFFCFQGEATRKLALK [G22L]  1.81
19. LTEAHGWHFFCFQGEATRKLAGK [E5H]  1.85
20. LTEAEGWHFFCFQGEATRKLAGL [K23L]  1.86
21. LTEAEGWHFFCFQGEATQKLAGK [R18Q]  1.87
22. LTEAEGWHFFCFQGEATRKLAIK [G22I]  1.91
23. LTEAYGWHFFCFQGEATRKLAGK [E5Y]  1.97
24. LTEAEGWHFFCFQGEATRKVAGK [L20V]  1.98
25. LTEAEGWHFFCFQGEATRKLPGK [A21P]  1.99
26. LTEAEGWHFFCFQGEATRKLAGS [K23S]  2
27. LTEAEGWHFFCFQGEATRKLYGK [A21Y]  2
28. LTEAEGWHFFCFQGEATTKLAGK [R18T]  2.03
29. LTEAEGWHFFCFQGEALRKLAGK [T17L]  2.04
30. LTEAEGWHFFCFQGEATGKLAGK [R18G]  2.07
31. LPEAEGWHFFCFQGEATRKLAGK [T2P]  2.12
32. LKEAEGWHFFCFQGEATRKLAGK [T2K]  2.14
33. LTEAEGWHFFCFQGEATRKLSGK [A21S]  2.16
34. LTEAEGWHFFCFQGEATRKLAGI [K23I]  2.17
35. VTEAEGWHFFCFQGEATRKLAGK [L1V]  2.22
36. LTEAEGFHFFCFQGEATRKLAGK [W7F]  2.22
37. LTEAEGWHFFCFQGEATRKLEGK [A21E]  2.25
38. LTEAEGWHFFCFQGEARRKLAGK [T17R]  2.26
39. TTEAEGWHFFCFQGEATRKLAGK [L1T]  2.33
40. MTEAEGWHFFCFQGEATRKLAGK [L1M]  2.34
41. LTEAEGWHFFCFQGEATRKLWGK [A21W]  2.34
42. LTEAEGWHFFCFQGEATRKAAGK [L20A]  2.36
43. LTEQEGWHFFCFQGEATRKLAGK [A4Q]  2.36
44. LTEDEGWHFFCFQGEATRKLAGK [A4D]  2.37
45. LTEAEGWHFFCFQGEATRKLAGP [K23P]  2.41
46. LTEAEGWHFFCFQGEAMRKLAGK [T17M]  2.46
47. LQEAEGWHFFCFQGEATRKLAGK [T2Q]  2.48
48. LTEAEGWHFFCFQGEATRKLAHK [G22H]  2.48
49. LTEAEGWHFFCFQGEATRKLNGK [A21N]  2.55
50. ATEAEGWHFFCFQGEATRKLAGK [L1A]  2.58
51. LTEAEGYHFFCFQGEATRKLAGK [W7Y]  2.58
52. LTEKEGWHFFCFQGEATRKLAGK [A4K]  2.61
53. LTEAEGWHFFCFQGEAQRKLAGK [T17Q]  2.63
54. LTEAEGIHFFCFQGEATRKLAGK [W7I]  2.63
55. LTESEGWHFFCFQGEATRKLAGK [A4S]  2.66
56. LTEAEGWHFFCFQGEATRKLANK [G22N]  2.67
57. LTEGEGWHFFCFQGEATRKLAGK [A4G]  2.68
58. LTEAEGWHYFCFQGEATRKLAGK [F9Y]  2.69
59. LTEAEGWHFFCFQGEAERKLAGK [T17E]  2.7
60. LTEAEGWHFFCFQGEATRKLAKK [G22K]  2.7
61. LTEAEGWHFFCFQGEATRKLTGK [A21T]  2.71
62. LTEAEGWHFFCFQGEATRKLDGK [A21D]  2.73
63. LTEAEGWHFFCFQGEATKKLAGK [R18K]  2.8
64. KTEAEGWHFFCFQGEATRKLAGK [L1K]  2.81
65. LTENEGWHFFCFQGEATRKLAGK [A4N]  2.87
66. LTEAEGWHFFCFQGEATRKMAGK [L20M]  2.91
67. LDEAEGWHFFCFQGEATRKLAGK [T2D]  2.97
68. STEAEGWHFFCFQGEATRKLAGK [L1S]  3.02
69. LTEAEGWHFFCFQGEAPRKLAGK [T17P]  3.05
70. LTEEEGWHFFCFQGEATRKLAGK [A4E]  3.14
71. LTEAEGWHFFCFQGEATRKLQGK [A21Q]  3.17
72. LTEPEGWHFFCFQGEATRKLAGK [A4P]  3.18
73. LTEAEGWHFFCFQGEATRKLHGK [A21H]  3.24
74. LTEAEGWHFFCFQGEATRKNAGK [L20N]  3.41
75. QTEAEGWHFFCFQGEATRKLAGK [L1Q]  3.47
76. LTEAEGWHFFCFQGEATRKGAGK [L20G]  3.47
77. LEEAEGWHFFCFQGEATRKLAGK [T2E]  3.48
78. LTEAEGWHHFCFQGEATRKLAGK [F9H]  3.48
79. LTEAEGMHFFCFQGEATRKLAGK [W7M]  3.5
80. LTEAEGWHFFCFQGEATRKTAGK [L20T]  3.52
81. LTEAEGWHNFCFQGEATRKLAGK [F9N]  3.52
82. LTEAEGWHFFCFQGEATRKEAGK [L20E]  3.6
83. LTEAEGGHFFCFQGEATRKLAGK [W7G]  3.63
84. LTEAEGWHFFCFQGEATRKRAGK [L20R]  3.66
85. LTEAEGWHGFCFQGEATRKLAGK [F9G]  3.69
86. LTEAEGRHFFCFQGEATRKLAGK [W7R]  3.72
87. ETEAEGWHFFCFQGEATRKLAGK [L1E]  3.73
88. LTEAEGWHRFCFQGEATRKLAGK [F9R]  3.77
89. LTEAEGWHAFCFQGEATRKLAGK [F9A]  3.78
90. LTEAEGWHFFCFQGEATIKLAGK [R18I]  3.84
91. LTEAEGCHFFCFQGEATRKLAGK [W7C]  3.87
92. LTEAEGHHFFCFQGEATRKLAGK [W7H]  3.96
93. LTEAEGTHFFCFQGEATRKLAGK [W7T]  4.08
94. GTEAEGWHFFCFQGEATRKLAGK [L1G]  4.09
95. LTEAEGWHKFCFQGEATRKLAGK [F9K]  4.13
96. LTEAEGNHFFCFQGEATRKLAGK [W7N]  4.35
97. LTEAEGEHFFCFQGEATRKLAGK [W7E]  4.9
